Experimental data taken from paper PMC10397344.

System: MLH1 wt;PMS2 wt
Assay: EMSA
Settings: untreated; ATP; 20 mM HEPES pH 7.5, 40 ug/ml BSA, 1 mM DTT, 100 mM NaCl, 1.5 ul of 10 mM ATP added, 95 ng DNA, on ice 5 min; 4% native PAGE, 0.5xTBE pH 7.5

GT-DNA-substrate (G/T mismatch) showed a binding signal (% (reference)) of 100.
